Experiments:
Assay in all cases: cell-based or functional assay
[1] = molecular target: T1, AVR3a homolog from Phytophthora palmivora designated as L6B (Phytophthora palmivora)
T1 sequence: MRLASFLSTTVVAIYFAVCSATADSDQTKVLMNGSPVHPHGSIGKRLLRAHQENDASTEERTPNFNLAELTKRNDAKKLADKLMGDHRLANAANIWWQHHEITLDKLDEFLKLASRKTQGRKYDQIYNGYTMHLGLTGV

[2] = molecular target: AVR3a^KI effector protein of Phytophthora infestans (Phytophthora infestans) (UniProt Q572D3)
[3] = molecular target: T2, AVR3a homolog from Phytophthora palmivora designated as L3B (Phytophthora palmivora)
T2 sequence: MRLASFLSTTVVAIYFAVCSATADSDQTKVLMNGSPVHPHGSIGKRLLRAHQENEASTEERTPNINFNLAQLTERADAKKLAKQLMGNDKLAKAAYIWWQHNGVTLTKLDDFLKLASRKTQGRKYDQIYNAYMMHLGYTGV

[4] = molecular target: T3, AVR3a homolog from Phytophthora palmivora designated as L7B (Phytophthora palmivora)
T3 sequence: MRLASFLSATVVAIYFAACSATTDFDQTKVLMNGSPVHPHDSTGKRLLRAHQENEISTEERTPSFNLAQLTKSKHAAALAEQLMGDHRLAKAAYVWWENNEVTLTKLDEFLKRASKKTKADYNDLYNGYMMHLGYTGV

B1: modified R3a protein corresponding to clone GS4 (protein)
chain: MEIGLAVGGAFLSSALNVLFDRLAPHGDLLNMFQKHKDHVKLLKKLEDILLGLQIVLSDAENKQASNRHVSQWFNKLQNAVDGAENLIEQVNYEALRLKVEGQHQNLAETSNQQVSDLNLCFSDDFFLNIKDKLEETIETLEVLEKQIGRLGLKEHFGSTKQETRTPSTSLVDDSDIFGRQNDIEDLIDRLLSEDASGKKRTVVPIVGMGGLGKTTLAKAVYNDERVQIHFGLKAWFCVSEAFDAFRITKGLLQEIGSFDLKADDNLNQLQVKLKERLKGKKFLIVLDDVWNDNYNKWDELRNVFVQGDIGSKIIVTTRKESVALMMGNEQISMDNLSTESSWSLFKTHAFENMGPMGHPELEEVGKQIAAKCKGLPLALKTLAGMLRSKSEVEEWKRILRSEIWELPHNDILPALMLSYNDLPAHLKRCFSFCAIFPKDYPFRKEQVIHLWIANGLVPQEDVIIEDSGNQYFLELRSRSLFERVPNPSQGNTENLFLMHDLVNDLAQIASSKLCIRLEESQGSHMLEQSQHLSYSMGYGGEFEKLTPLYKLEQLRTLLPTCIDLPDCCHHLSKRVLHNILPRLTSLRALSLSCYEIVELPNDLFIKLKLLRFLDISRTEIKRLPDSICALYNLETLLLSSCYDLEELPLQMEKLINLRHLDISNTRPLKMPLHLSKLKSLQVLVGAKFLIGGLRMEDLGEVHNLYGSLSVVELQNVVDRREAVKAKMREKNHVDRLYLEWSGSSSADNSQTERDILDELRPHKNIKVVKITGYRGTNFPNWLADPLFLKLVKLSLRNCKNCYSLPALGQLPFLKFLSIREMHGITEVTEEFYGSWSSKKPFNCLEKLEFKDMPEWKQWDLLGSGEFPILEKLLIENCPELSLETVPIQLSSLKSFDVIGSPLVINFPLSILPTTLKRIKISDCQKLKLEQPTGEISMFLEELTLIKCDCIDDISPELLPRARKLWVQDWHNLTRFLIPTATETLDIWNCENVEILSVACGGTQMTSLTIAYCKKLKWLPERMQELLPSLKELHLSNCPEIESFPEGGLPFNLQQLAIRYCKKLVNGRKEWHLQRRLCLTALIIYHDGSDEEIVGGENWELPSSIQRLTIVNLKTLSSQHLKNLTSLQYLFIRGNLPQIQPMLEQGQCSHLTSLQSLQISSLQSLPESALPSSLSHLEISHCPNLQSLPESALPSSLSQLTINNCPNLQSLSESTLPSSLSQLEISFCPNLQYLPLKGMPSSLSELSIYKCPLLKPQLEFDKGEYWPNIAQFPTIKIDRECM
Q: Which Cell death/HR intensity, pVnt1-R3aGS4, 1dpi [1] does the source give for B1 here?
A: 0

Q: What about the Cell death/HR intensity, pVnt1-R3aGS4, 2dpi [1] of the same binder?
A: 0

Q: What about the Cell death/HR intensity, pVnt1-R3aGS4, 3dpi [1] of the same binder?
A: 0

Q: And the Cell death/HR intensity, pVnt1-R3aGS4, 1dpi [2]?
A: 2

Q: And the Cell death/HR intensity, pVnt1-R3aGS4, 2dpi [2]?
A: 4

Q: What about the Cell death/HR intensity, pVnt1-R3aGS4, 3dpi [2] of the same binder?
A: 4

Q: What about the Cell death/HR intensity, pVnt1-R3aGS4, 1dpi [3] of the same binder?
A: 0

Q: And the Cell death/HR intensity, pVnt1-R3aGS4, 2dpi [3]?
A: 2

Q: And the Cell death/HR intensity, pVnt1-R3aGS4, 3dpi [3]?
A: 3

Q: And the Cell death/HR intensity, pVnt1-R3aGS4, 1dpi [4]?
A: 2

Q: And the Cell death/HR intensity, pVnt1-R3aGS4, 2dpi [4]?
A: 2

Q: What about the Cell death/HR intensity, pVnt1-R3aGS4, 3dpi [4] of the same binder?
A: 2

Reference: US20130097734A1
